Broadly, the EC50 (read off the curve) is the concentration needed to bring the measured effect to its halfway point.

For two substances, Maximal inhibition of ADM bioactivity (ADM-Bioassay) (%) and EC50 (read off the curve) results are on record in patent US20130195875A1.

In experiment [1] the target is ADM (human or mouse, not stated for this row). In words: cell-based or functional assay.
In experiment [2] the target is human recombinant adrenomedullin receptor (CRLR+RAMP3) (human).

On to Non specific mouse IgG (antibody), for which the Maximal inhibition of ADM bioactivity (ADM-Bioassay) (%) in experiment [1] turned out to be 0%.
“human adrenomedullin (hADM 1-52) (peptide)”: the EC50 (read off the curve) in experiment [2] came to 1 nM.
